This assay addresses recombinant staphylococcal protein A (SpA) (Staphylococcus aureus) (UniProt P02976).
UniProt P02976, sequence (P02976 37-485): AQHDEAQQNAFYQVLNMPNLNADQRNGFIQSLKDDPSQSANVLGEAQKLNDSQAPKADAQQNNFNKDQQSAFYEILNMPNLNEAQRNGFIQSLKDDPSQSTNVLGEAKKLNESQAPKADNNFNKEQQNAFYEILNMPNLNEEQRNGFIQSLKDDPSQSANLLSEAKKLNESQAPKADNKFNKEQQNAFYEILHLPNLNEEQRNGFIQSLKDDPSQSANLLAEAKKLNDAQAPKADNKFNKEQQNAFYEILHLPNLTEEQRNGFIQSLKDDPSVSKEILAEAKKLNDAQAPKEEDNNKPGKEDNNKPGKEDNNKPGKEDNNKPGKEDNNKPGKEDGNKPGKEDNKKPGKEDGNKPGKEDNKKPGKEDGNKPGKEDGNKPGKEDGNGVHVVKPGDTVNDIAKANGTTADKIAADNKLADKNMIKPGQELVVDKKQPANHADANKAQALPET

As for “recombinant murine VHIII IgG3 (variable regions of the anti-PC TEPC15 clone) (antibody)”, the in vivo depletion of adoptively transferred VHIII (T15i) B cells at 72 h after SpA challenge in muMT mice pretreated with 1 mg of the IgG (told of the IgG3 mAbs together) came to 60 % depletion. The same measure for “recombinant murine VHI isotype control IgG3 (antibody genes of the anti-hen egg lysozyme D1.3 mAb)”: 60 % depletion.

The record behind these values is publication PMC6156153.
